Reference: patent US20090028842A1, “Dekkera/Brettanomyces Cytosine Deaminases And Their Use” (ZGene A/S, priority 2005, published 2009)

Assays:
[1] = CD activities in crude extracts of BL21 cells transformed with CD genes; format: biochemical; details: cytosine 500 uM, triplicates, mean with standard deviation
Experimental: Bacteria or cell lines were grown as described, harvested and stored at −80° C. until activity testing. Cells were submitted to brief sonication in extraction buffer (50 mM Tris/HCl pH 7.5, 1 mM DTT, 10% (v/v) glycerol, 1% (v/v) Triton X-100, protease inhibitor cocktail Complete™ from Roche Diagnostics). Cytosine deaminase activities were determined spectrophotometrically by monitoring the absorbance decrease at 286 nm (Δε286=−0.68 mM^−1 cm^−1) resulting from the deamination of cytosine to uracil. Assays were initiated by the addition of CD to 0.5 mM cytosine in 50 mM Tris-HCL at pH 7.5 and 30° C. and followed for 150 sec. One unit of CD was defined to catalyze the formation of 1 μmol of uracil per min. Dual beam recording ZEIS spectrophotometer, thermostated at 30° C., was used for the assays.
To better characterize D. bruxellensis CD over expression of the protein in bacteria was done. In addition to D. bruxellensis CD, homologous genes from S. cerevisiae was also amplified from total genomic DNA and cloned as histidin tagged construct into pET100 bacterial expression vector. The plasmids were transformed into E. coli BL21 strain and protein expression was induced by IPTG for 8 hours. After harvesting, cell extracts were spectrophotometrically measured for cytosine and 5-FC deamination. All yeast CDs tested were functional when expressed in bacteria (Table 2).

[2] = CD activities with purified his-tagged proteins; format: biochemical; details: purified his-tagged protein, 37° C., cytosine 500 μM, triplicates, mean with standard deviation
Experimental: For recombinant protein expression, E. coli cells were grown to a density of A600 nm=0.5-0.6 in LB medium supplemented with 100 μg/ml ampicillin, and the expression was induced with 10 μM IPTG for 8 h at 25° C. The cells were harvested by centrifugation, and the pellet was resuspended in 25 ml ice-cold binding buffer A […] (50 mM sodium phosphate pH 8.0; 300 mM NaCl; 10% glycerol; 25 mM imidazole) containing protease inhibitor cocktail (Complete™-EDTA free from Roche Diagnostics). The cells were homogenized using a French Press, subjected to centrifugation at 12,000×g for 30 minutes (4° C.), filtered through a […] Whatman glass microfiber filter and a […] cellulose acetate filter, and loaded onto a 5 ml Ni^2+-NTA column (Qiagen). […]
Bacteria or cell lines were grown as described, harvested and stored at −80° C. until activity testing. […] Cytosine deaminase activities were determined spectrophotometrically by monitoring the absorbance decrease at 286 nm (Δε286=−0.68 mM^−1 cm^−1) resulting from the deamination of cytosine to uracil. […]
To characterize the substrate specificities of yeast CDs, purified proteins were measured at 37° C. and fixed cytosine concentration and assays was performed as described in Example 1 (Enzyme assays) (Table 3).

[3] = format: physicochemical; details: storage at 50° C., his-tagged enzyme
Experimental: Purified and his-tagged CD from D. bruxellensis and S. cerevisiae CD were assayed after different periods of storage at 50° C. and 37° C. (FIGS. 8a and 8b). Indeed, D. bruxellensis CD was extremely stable at 50° C. when compared to S. cerevisiae CD which lost all activity after only 4 minutes. Half life for D. bruxellensis CD at 50° C. was app. 3 hours (FIG. 8a). […] It should be observed that the temperature stability of the proteins without his-tags could be different.

B1: Sc CD (PZG738): cytosine deaminase from Saccharomyces cerevisiae (FCY1 gene), recombinant his-tagged protein in pET100 (protein, UniProt Q12178 1-158, looked up)
Cytosine deaminase: MVTGGMASKWDQKGMDIAYEEAALGYKEGGVPIGGCLINNKDGSVLGRGHNMRFQKGSATLHGEISTLENCGRLEGKVYKDTTLYTTLSPCDMCTGAIIMYGIPRCVVGENVNFKSKGEKYLQTRGHEVVVVDDERCKKIMKQFIDERPQDWFEDIGE
modifications: His tag
notes: cytosine deaminase from Saccharomyces cerevisiae (FCY1 gene), recombinant his-tagged protein in pET100
Q: For B1, which “CD activity, Cytosine” value [1] is on record?
A: The value was 40.69 ± 0.56.

Q: What about the “CD activity, Cytosine” value [2] of the same molecule?
A: Its value is 888.4 ± 4.8 U/mg/min.

Q: And the “Time after which all activity was lost” value [3]?
A: Its value is 4 min.
